Molecular target: T1, PD-L1-his蛋白 (人PD-L1胞外区, his标签) (human, UniProt Q9NZQ7 19-238)
T1 construct: extracellular domain; also called PD-L1蛋白; PD-L1-his蛋白标准品; not shown: his tag
Test: sandwich ELISA, PD-L1 antibody as capture, biotinylated antibody X as detection, HRP-Streptavidin

T1 sequence (Q9NZQ7 19-238): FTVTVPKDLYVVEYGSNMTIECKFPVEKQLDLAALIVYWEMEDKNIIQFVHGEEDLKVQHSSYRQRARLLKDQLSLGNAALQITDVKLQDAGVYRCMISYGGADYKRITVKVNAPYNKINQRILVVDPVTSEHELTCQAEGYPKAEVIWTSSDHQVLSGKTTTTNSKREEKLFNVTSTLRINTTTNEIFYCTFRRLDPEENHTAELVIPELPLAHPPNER

B1: 抗体X (非封阻型抗PD-L1抗体) (antibody, V domains shown)
VH: QVQLQQSGTELMKPGASVKISCKATGYTFSNYWIEWVKQRPGHGLEWIGEILPGSGNTNYNENFKGKATFTADTSSNTAYMQLSRLTSEDSAVYYCARERASTSWGQGTLVTVSA
VL: DIQMTQTTSSLSASLGDRVTITCSASQGISNYLNWYQQNPDGTVKLLIYYTSHLHSGVSSRFSGSGSGTDYSLTISNLEPEDIATYYCQQYVKLPWTFGGGTKLEIK
notes: Used biotin-labelled as the detection antibody; also called PD-L1抗体X; 第二抗体
binding result: binds
